From the DeepSol protein solubility set come the findings set out here.

This data set is described as follows: soluble on expression in E. coli; label from the status in PepcDB or PDB records.
On to “MGSDKIHHHHHHCQNHVETMSITNNDAYLLQQTALSSSLGYDIVESLTVEVGPRLAGSPKDIIAVNWAMDKLTHLGFDRVYKEPVQVPIWERGEAKAKITFPVEQPLVITALGGSVATPTTGIQAKIIRFDSLEALKQANPEDVKGRIAFIDQKTERHITGEGYGKSVGGRSKGAVAAAEKGAVAIIIRSIGTDHDRMAHTGVMRYQDGVPKIPAAAMSNPDADLVTAMLRRDPNAILELQMSPKNSGFNTSYNVIAEVTGSSKPNEIVLIGAHLDSWDEGTGAIDDGAGVAIVTAAAKHIQDLPIKPARTVRVVLYAAEEIGLMGGKAYAEAHKAELPLHYIAAESDFGAGRIYQIDTKVNEGVFTKVQNILKPMTLNGVTLGSNQASAGPDISMLPAQGVPVASLRQDGRDYFDYHHTPNDTLDKIDPAALAQNVAAYAQFAYLMANSNIVLTPLASEIK”, for which the “soluble on expression in E. coli” value is on record as “not soluble”.

On to “MTTAIGKKTTKLEPFKMERGVKYRDAAKTSVIQVRNIDPDQELLKKPEWMKIKLPTNSAKIDSIKYGMRRHGLHSVCEEASCPNLHECFNHGTATFMIMGAICTRRCPFCDVAHGKPLPLDPYEPRKVAETVQDMKLKYVVITSVDRDDLADRGAAHFAATVREIKALNPECKVEILVPDFRGRVEQAVAILKQNPPDVFNHNLENVPRLYREIRPGADYKWSLELLKIFKQEFPNIPTKSGLMVGLGETNEEILAVMQDLRDHGVTMLTVGQYLQPSRHHLRVERYVPPAEFEMFRSEAEKMGFEHAACGPFVRSSYHADLQAKGELVK”, for which the “soluble on expression in E. coli” value is “not soluble”.

For “MGSDKIHHHHHHMKTSQLIRKIQEKIDEAMSRLNDLESMEIKTEEYLDTFLALVNNTYKKAEIYNTLVDQWNLLMKQGDEIKRSIEEFKPEYVHHLTEMMKYDGINLLYLRENEHLRAIGIDEIAARTFQEFLKEEELAERSEAFNQAVRKTREQIQQYHMFHYYVSLTDNELKVDENYRLAGNYYRYSIDFFDKNFPYKSIGISRKLENVPELLEKFFRLREKLEGEDPEGDRVRKTLERLYSLSSFDTVEEFNAIIDEWTDLYEAYKQEDPFKTNVLSYSYINKDGRTVQKTYPTYDFLRWLSQRNRKNQEYILNNYLRRITDDPTREGYEIRDPSVVLENRLVEATIKALPNYKSGIMSEIDSLKKMSRMKRKRKEEEIQKKIMTDPFAAVGAKVPEEIKYWLLRRLDVTHPDLYEEWNRITSELQAYLEEVVKQ”, the “soluble on expression in E. coli” value was “not soluble”.

Take “MTEHNHDSQLEINNEEELLTLFDEEGNEVLYRKVLEFYHPEFKKEYVILAEEGAQSDEDDMIELVPMINEPDESGDGGKLVPIETDEEWDMIEEVVNTEMEELEHHHHHH”: the “soluble on expression in E. coli” value is “not soluble”.

For the sequence “MGHHHHHHSHGYRSVRERTSTSGTHRDREDSKFRRTRPLECQDALETAARAEGLSLDASMHSQLRILDEEHPKGKYHHGLSALKPIRTTSKHQHPVDNAGLFSCMTFSWLSSLARVAHKKGELSMEDVWSLSKHESSDVNCRRLERLWQEELNEVGPDAASLRRVVWIFCRTRLILSIVCLMITQLAGFSGPPTDLRKEGMNLQTLRLRSSNKHQRFPGLPRAPVYQKLLERMKH”, the “soluble on expression in E. coli” value was “soluble”.

In the case of “DATWLPPSRWDDGIPGLMLDYNLNGTVSRNYQGGDSHQFSYNGTVGGNLGPWRLRADYQGSQEQSRYNGEKTTNRNFTWSRFYLFRAIPRWRANLTLGENNINSDIFRSWSYTGASLESDDRMLPPRLRGYAPQITGIAETNARVVVSQQGRVLYDSMVPAGPFSIQDLDSSVRGRLDVEVIEQNGRKKTFQVDTASVPYLTRPGQVRYKLVSGRSRGYGHETEGPVFATGEASWGLSNQWSLYGGAVLAGDYNALAAGAGWDLGVPGTLSADITQSVARIEGERTFQGKSWRLSYSKRFDNADADITFAGYRFSERNYMTMEQYLNARYRNDYSSREKEMYTVTLNKNVADWNTSFNLQYSRQTYWDIRKTDYYTVSVNRYFNVFGLQGVAVGLSASRSKYLGRDNDSAYLRISVPLGTGTASYSGSMSNDRYVNMAGYTDTFNDGLDSYSLNAGLNSGGGLTSQRQINAYYSHRSPLANLSANIASLQKGYTSFGVSASGGATITGKGALVPR”, the “soluble on expression in E. coli” value is recorded as “soluble”.

On to “MEINSREVYVFTPKGDVMSLPQGATPVDFAYAVHTEVGHRCIGARVNGKLVTLDTKLNNGDVIDILTSNAPDAGPSRLEHHHHHH”, for which the “soluble on expression in E. coli” value was “not soluble”.

With “MDRIQENQKKATNLCELYADGNDDDSEKEQQDRGLDAQFLLRSTPEDVEKYMIHVRKQLMEGEGECLVELGAPINSNSKNPKSGLSEEDLDKAADAQLKILEKIPAVGTKVIRRKQTGGGSLFTEVWIIRDPPTEKDFIEARVAVVGNVDAGKSTLLGVLTHSALDDGRGAARTKLFRHKHEFESGRTSSVGNDILGFDVHGNIVNKPDPHNHNLDWVQIGSDCAKLVTFIDLAGHEKYLKTTIFGMTGHMPDYTMLMIGANMGIIGTTKEHLSLALSLHVPVYLVVTKIDMCPANILEETMKNITRLVRSAKKLPILVRNMDDVVHAAVNFPSKKVCPIFQVSNVEGTNLPLLRQFLNIVPLRRQLNENDPAHFQIDDIYWVDGVGTIASGTLLSGTIRLNDILLLGPTSNGDFMPIPIKSIHRKRMPVGIVKCGQSASFALKKIPKKDVRKGMVLVDPKVKPVASMVFEAEILVLHHPTTIKPNYQAMLHIGSVRQTATLVSMGKEVLRTGDRDKVQFKFIRQPEYIRPGTKMVFREGRTKAVGTVSSVVPQESLAQQRAKQKDGRQKQYGKKSMGPKPPNGKPKEKIEKKLDALSIEQLTSAASTSTSST”, the “soluble on expression in E. coli” value is reported as “not soluble”.

On to “MAKKLFAFLGIGDYKSVEYYFQNKKEGYKTEYIQEAITKLLNEQDLNVTVFVTAEARKKHWEPENNKGLESRLKKLNINCKAVNIPDGKANDDVWKIFTSVYSEIEFNDEIYVDVTHSLRNIPIIFMSVLNYAKVTKNCTIKGIFYGAYEAKENERAPIYDLTLFDQIGEWSSGVEQLLTTGECEMFCSTVEKTLDPLLREAKGKDELIKLVKKCSKLIKEFYTDLKLVRGKSVLEDGRKLYQVLCEIKALNTEKHITMQPFFHILERVENQVAFFQNENLIENILECVKLCKKFGQYQQAYTFLRENIINYVCINTGLDWKKEDPDRLKAEELIGKLYMRKIKKVQIEVSEDIKSILENGEDFICDDAIELFGELIEFRNDLDHAQFRMINPSKDKITCKLDSFIERFEKYYISK”, for which the “soluble on expression in E. coli” value is recorded as “not soluble”.

On to “MKQKEYMEYRPLGEEIERIRKGKNIPLRVFDENGVSSRSYQRFVQGNSELRISDLAIIVEILSISPMEMTEKLTPMSKTVLAKEQFNQAIFSKNFQESSRIVADYRAYYEKSSFALGKQEVMYSMLALEYLFNPQTVVTKEEIIALENQILERLINADVYTIFNLKFLALQKNVGLQPFPTSLLFRVLQSVNEREIIDIRSLEIIEQVIIDFLFAAIVSQNVPHILHVLSMFKEYEVGENNWRMILWKKIAEKIEMILTNEEIFADWSIFKEQILLSITLFLPKAKQEFFAGQLEKIEDSLKEIKEN”, for which the “soluble on expression in E. coli” value is “not soluble”.

In the case of “MGQSFSSSFNAKQTSSSTPQKSTKTPTCSDPRSPSQDIERTPIQVKTVENDENGSSESSTTKADKPRKTSLRQKMFARKKNMNSETDE”, the “soluble on expression in E. coli” value was “not soluble”.

In the case of “MAHHHHHHMLSTACRAPVRGRAYCGCNRGLVSFSFYSTFAGDRRGAGGDETSGANSGGSGDSGETPKASKATVEERRRMAKSWENAFFGRVHYEPGMHDRYQAALDAEVEEHATLDEKDRCDRLPNWPDDEETPLHEFLQLSDAAKKRYIVRRLTMGERRINYAPYYGSLLMMQHLNLGELMISDAEHLVRESGWMTECVASKIEAVRECASKIKFEYDLD”, the “soluble on expression in E. coli” value is given as “not soluble”.

On to “MGSDKIHHHHHHMLRVKNLRLKYPNGDRKIFDNLNLEIKNKEKVLLLGPSGSGKSTLLNVLSGIVPNLIELPMKYDELNIDHDSGVIFQDPDNQFCMPKVYEELAFVLENRNIPRSEMDQEIENALKSVDLNVTHKTYVNNLSGGMKQKLAIVETILQKSKTLFLDEPTAMLDVKATEDLWKKLINLWKDQTVLIVEHKVEHIWQHVDRVLLLNYDGEIVADDTPEQILDHYEALLTEYGVWHPRAWHSAPRPIPLPNQTKNLLFHFDDGQIIRGKKTLFSSKELKLYSGEWLTITGKNGAGKTSLLEAMLQLIKYEGDMFYRDQLLSKIKQAAKHMYLVYQNPELQFITNSVYDEVYIHYNHLDPKHANDETMDLLKLLHLDQVKDHHPFEISTGQKRRLSVATALSSKAEIILLDEPTFGLDSHNTFQLIKLFQERVNQGQTIIMVTHDPEIIKRYPTRRLRVEDGCLKEMEGEHIV”, for which the “soluble on expression in E. coli” value is on record as “not soluble”.

For “MYINVVKCMWKQIKHRFEGYPSRMYVARKIIDLGFRIDRNGKIYCDDVEISDVALARAVGVDRRTVRATANTILEDEKLRGIFENMMPAGALLRDAAGELDFGVVEIEADARNPGILAAAARLIADKGISIRQAHAGDPELDETPRLTIITETPIPGGLLKDFLKIDGVKRVSIY”, the “soluble on expression in E. coli” value is “soluble”.

Turning to “MSGDYRITLEELRYISVFHSITGVTAYRCIVDEENNRLIFLVSEGEAGRAIGRGGRLIKLLREALGKNIEVVEYSSDLERIVKNLFPGVKIESINVRERNGVKQVVIKVSEDDKGAAIGKGGKNVKRARLVLSKLFGVEKVVIR”, the “soluble on expression in E. coli” value is given as “soluble”.

Consider “SARKKIREYDSKRLLKEHLKRLANIDLQIRSAQVTESTDFTELTNQESWLSSTKLVVKPDMLFGKRGKSGLVALKLDLAEVADFVKARLGTEVEMEGCKAPITTFIVEPFVPHDQEYYLSIVSDRLGCTISFSECGGIEIEENWDKVKTIFLPAEKSMTLEVCAPLIATLPLEVRAKIGNFIMGAFAVFQDLDFSFMEMNPFTLVDGEPFPLDMRGELDDTAAFKNFNKWGDIEFPLPFGRVLSSTENFIHGLDEKTSASLKFTVLNPKGRIWTMVAGGGASVIYADTVGDLGYASELGNYAEYSGAPNEEEVLQYARVVIDCATTDPDGRKRALLIGGGIANFTDVAATFNGIIRALREKETRLKASRMHIYVRRGGPNYQTGLARMRALGEELGVPLEVYGPEATMTGICKRAIDCIMLPDA”, for which the “soluble on expression in E. coli” value is “not soluble”.

As for “MGSDKIHHHHHHVRACCGDQRAMSATDHGLPAIAELTDKELEVLRLLTAGHTIKSIAALLDRSEASINERLRDARRKTGVGSSRELARLVAGQENWPRKTDLSTPAVSGDADGQPALAARHWPKGTIAMFTLLPLAAGLMLVSAASQQADGPQSSHAAAAIASPLVGKWSLDTSRIPADERPRSVMIAFSVSPDQQWSTQVDIVAPDGSKMTATSTARADGVAVPISGNIPIFDTASLRQPAPNTLVMTLGKSGTPVATRVYTVARDGNSMTETIVWADKTMPKMETTYFNRVG”, the “soluble on expression in E. coli” value was “not soluble”.

With “MAHHHHHHMSQEEILQQTTGPSVPGKGVIVDDGTMEDIIDKLRILRYEKDFCPRVKPPFKPLSKYYFSGPSSIDNPNAQFHYFTSLCSWLMGLAGHNFEPPGQFDDPNATSTNILGELRAMNISAPNLAPNRIRQGNGEAVLTILSVLSDHALLKKGFTVRSVDYTNVEKYDELDGVTDADDDNGIGEEVEDNVMIESDDEEELYVRATGERLVKEDAGVPLESEINAEEWNLEVERVGPLLQVRSDALQDWRSRIESAGVLLRAVEKMYPEVKADASTCGG”, the “soluble on expression in E. coli” value is listed as “not soluble”.

Turning to “MGSDKIHHHHHHMEWEVFEYRTKGIMAEIEAGRLKIVSSYVDKSFSARVILKGRVGFASASTRDEALSLAEKIARISEDELEDFPNEKPASVKGIYDKRVEEADSELIMEEFERLRSAVEKANIASATIEHAVEEVRITNSFGLDSREKSTSSSMIVEAVFEGGSAYEVCGSRSIELDIEGAAKKAEELAVDSAKAIKIEGGTYDVILQPIAVHQLLSNTLYPSLSAENVEKGRSVIRLGDEFGRITVIDDPTVEGGLMSCGFDDEGVSARKTFLIDNGVVRSYYTDWKHSKKYGVTGNGFRLEESSFPAPMVSNVVLEVDDADDDNCLTIHSLIGSHTANPVSGDFSLECNNAYFGEKAVKGAMIYGNVFELLKKVEGGLGELRQIENTVTKSLRFRSVRVI”, the “soluble on expression in E. coli” value is “not soluble”.
